Measured values reported in the supplement of paper PMC7877785.
± gives the uncertainty stated by the source.

Assay: self-splicing fitness, log relative to wild type (ln ratio); higher = more splicing; Tetrahymena group I intron in knt gene, E. coli kanamycin selection, DiMSum; sequences stand for … in CUCUCU…GGAGGGAAAAGUUAUCAGGCAUGCACCUGGUAGCUAGUCUUUAAACCAAUAGAUUGCAUCGGUUUAAAAGGCAAGACCGUCAAAUUGCGGGAAAGGGGUCAACAGCCGUUCAGUACCAAGUCUCAGGGGAAACUUUGAGAUGGCCUUGCAAAGGGUAUGGUAAUAAGCUGACGGACAUGGUCCUAACCACGCAGCCAAGUCCUAAGUCAACAGAUCUUCUGUUGAUAUGGAUGCAGUUCACAGACUAAAUGUCGGUCGGGGAAGAUGUAUUCUUCUCAUAAGAUAUAGUCGGACCUCUCCUUAAUGGGAGCUAGCGGAUGAAGUGAUGCAACACUGGAGCCGCUGGGAACUAAUUUGUAUGCGAAAGUAUAUUGAUUAGUUUUGGAGUACUCGUGGUCG
Outline: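 Fitness was computed with DiMSum as the error-weighted combination of replicate fold changes, kanamycin versus none, each normalised to wild type. The library randomised all eight intron nucleotides of the P1ex region, with the intron placed in the knt kanamycin-resistance gene on pET-22b(+) in E. coli BL21(DE3). Six replicate transformations were grown overnight at 37°C or 30°C on LB agar with or without 25 μg/mL kanamycin, plus 100 μg/mL carbenicillin, 50 μM IPTG and 0.2% rhamnose. Pooled colonies were amplicon-sequenced on an Illumina HiSeq 2500.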

Sequence	self-splicing fitness (ln) (30 °C)	self-splicing fitness (ln) (37 °C)
UUUGAGCAAUAUUACGCAGC	-3.5 ± 0.28	-2.43 ± 0.21
UUUGAGCAAUAUUACGCCUA	-0.79 ± 0.45	
UUUGAGCAAUAUUACGCGCA		-1.65 ± 0.48
UUUGAGCAAUAUUACGCUAC		-1.45 ± 0.3
UUUGAGCAAUAUUACGCUAG	-2.68 ± 0.37	-1.33 ± 0.23
UUUGAGCAAUAUUACGCUGA	-2.58 ± 0.34	
UUUGAGCAAUAUUACGGCGG	-1.04 ± 0.24	-1.57 ± 0.28
UUUGAGCAAUAUUACGGGGC		-2.07 ± 0.45
UUUGAGCAAUAUUACGGGUU	-3.23 ± 0.34	-2.91 ± 0.48
UUUGAGCAAUAUUACGGUAU	-4.23 ± 0.36	-2.73 ± 0.38
UUUGAGCAAUAUUACGUAUC	-4 ± 0.29	-2.45 ± 0.23
UUUGAGCAAUAUUACGUCAU	-3.88 ± 0.34	-1.64 ± 0.21
UUUGAGCAAUAUUACGUCUA	-1.05 ± 0.2	-1.06 ± 0.21
UUUGAGCAAUAUUACGUGCU	-3.64 ± 0.16	-2.84 ± 0.2
UUUGAGCAAUAUUACGUUAA	-2.96 ± 0.29	-1.57 ± 0.22
UUUUAGCAAUAUUACGAAGG		-1.85 ± 0.41
UUUUAGCAAUAUUACGAAUC		-1.38 ± 0.4
UUUUAGCAAUAUUACGACAU	-2.164 ± 0.021	-1.09 ± 0.036
UUUUAGCAAUAUUACGAUCA	-0.641 ± 0.15	-0.391 ± 0.17

Sequence	self-splicing fitness (ln) (30 °C)	self-splicing fitness (ln) (37 °C)
UUUUAGCAAUAUUACGCCAA	-2.27 ± 0.35	0.0505 ± 0.22
UUUUAGCAAUAUUACGCCCA	-0.313 ± 0.22	0.00602 ± 0.28
UUUUAGCAAUAUUACGCCGG	-1.28 ± 0.18	-0.833 ± 0.21
UUUUAGCAAUAUUACGCCUG	-0.393 ± 0.22	0.333 ± 0.3
UUUUAGCAAUAUUACGCCUU	-1.74 ± 0.34	-0.968 ± 0.22
UUUUAGCAAUAUUACGCGAC	-2.52 ± 0.34	
UUUUAGCAAUAUUACGCUAG	-3.18 ± 0.34	-1.7 ± 0.35
UUUUAGCAAUAUUACGCUCA	-0.731 ± 0.29	0.849 ± 0.44
UUUUAGCAAUAUUACGCUCC	-1.4 ± 0.33	-1.25 ± 0.45
UUUUAGCAAUAUUACGCUUU	-3.71 ± 0.28	-1.23 ± 0.16
UUUUAGCAAUAUUACGGAUG	-1.12 ± 0.22	0.2 ± 0.15
UUUUAGCAAUAUUACGGCUC	-2.49 ± 0.23	-0.329 ± 0.21
UUUUAGCAAUAUUACGUCGU	-3.49 ± 0.15	-2.81 ± 0.17
UUUUAGCAAUAUUACGUGUC	-2.93 ± 0.3	-2.26 ± 0.38
UUUUAGCAAUAUUACGUGUG	-2.29 ± 0.16	-1.17 ± 0.15
UUUUAGCAAUAUUACGUUAU	-2.53 ± 0.25	-1.73 ± 0.35
UUUUAGCAAUAUUACGUUCA	-1.18 ± 0.21	-0.458 ± 0.22
UUUUAGCAAUAUUACGUUGU	-2.65 ± 0.18	-2.13 ± 0.24
